OD value data for 30 molecules are collected here from patent US20260144882A1 (BIO THERA SOLUTIONS, published 2026).

The chains are these.
B1: 1F3-1G5 scFv (scFv, V domains shown)
VH: EVQLVESGGGLVQPGGSLRLSCAASGFSFGSYGMSWVRQAPGKGLEWVSGIKPSTSTTYYADSVKGRFTISRDNSKNTLYLQMNSLRAEDTAVYYCARAELLAFDVYTASDYWGQGTLVTVSS
VL: DIQMTQSPSSLSASVGDRVTITCRASQGISSYLAWYQQKPGKAPKLLIYAASSLQSGVPSRFSGSGSGTDFTLTISSLQPEDFATYYCQQHYTTPPTFGQGTKVEIKR
notes: phage clone supernatant
B2: 1F3-1E10 scFv (scFv, V domains shown)
VH: B1 VH with S28N, G30S, G50R, K52S, S54Y, S56D, T57N, T58K
VL: B1 VL
notes: phage clone supernatant
B3: 1F3-1D1 scFv (scFv, V domains shown)
VH: EVQLVESGGGLVQPGGSLRLSCAASGDIFTNYSMSWVRQAPGKGLEWVSGIYPSGDNNRYADSVKGRFTISRDNSKNTLYLQMNSLRAEDTAVYYCARAELLAFDVYTASDYWGQGTLVTVSS
VL: B1 VL
notes: phage clone supernatant
B4: 1F3-1E1 scFv (scFv, V domains shown)
VH: B1 VH with G30D, S31D, G33A, G50I, K52Y, S54T, T55G, T58N
VL: B1 VL
notes: phage clone supernatant
B5: 1F3-1G11 scFv (scFv, V domains shown)
VH: B1 VH with F27Y, G30T, S31G, K52S, T55G, S56G, T58I, Y59G
VL: B1 VL
notes: phage clone supernatant
B6: 1F3-2A12 scFv (scFv, V domains shown)
VH: B1 VH with F27Y, G30D, S54T, T55G, S56A, T57S
VL: B1 VL
notes: phage clone supernatant
B7: 1F3-1E9 scFv (scFv, V domains shown)
VH: B1 VH with S28T, G30D, S31D, G33A, T55S, S56W
VL: B1 VL
notes: phage clone supernatant
B8: 1F3-2B2 scFv (scFv, V domains shown)
VH: EVQLVESGGGLVQPGGSLRLSCAASGYNFYSYGMSWVRQAPGKGLEWVSIISPDGGYKRYADSVKGRFTISRDNSKNTLYLQMNSLRAEDTAVYYCARAELLAFDVYTASDYWGQGTLVTVSS
VL: B1 VL
notes: phage clone supernatant
B9: 1F3-1B1 scFv (scFv, V domains shown)
VH: B1 VH with S28T, S31T, S54G, T55D
VL: B1 VL
notes: phage clone supernatant
B10: 1F3-2C9 scFv (scFv, V domains shown)
VH: B1 VH with S28N, S31G, G50R, K52S, S54G, T55D, T58P, Y59R
VL: B1 VL
notes: phage clone supernatant
B11: 1F3-1H11 scFv (scFv, V domains shown)
VH: B8 VH with Y27F, Y30T, S31D, I50R, P53Q, D54W, G56D, Y57T, K58S, R59N
VL: B1 VL
notes: phage clone supernatant
B12: 1F3-2D8 scFv (scFv, V domains shown)
VH: B8 VH with N28S, Y30S, S31D, I50R, D54S, G55K, G56A, Y57V, R59D
VL: B1 VL
notes: phage clone supernatant
B13: 1F3-1F8 scFv (scFv, V domains shown)
VH: B8 VH with Y27F, Y30G, S31N, I50R, P53G, G56S, Y57N, K58I, R59N
VL: B1 VL
notes: phage clone supernatant
B14: 1F3-2B9 scFv (scFv, V domains shown)
VH: B1 VH with S28N, G30D, G33A, S54H, S56D, T57D, T58I
VL: B1 VL
notes: phage clone supernatant
B15: 1F3-1G7 scFv (scFv, V domains shown)
VH: B3 VH with T30S, N57S, N58R
VL: B1 VL
notes: phage clone supernatant
B16: 1F3-1H3 scFv (scFv, V domains shown)
VH: B1 VH with S28N, G30Y, S31N, S54H, T55S, S56D, T57V, T58A, Y59H
VL: B1 VL
notes: phage clone supernatant
B17: 1F3-1C11 scFv (scFv, V domains shown)
VH: B1 VH with S28N, G30S, G50A, K52S, P53G, T55G, S56G, T57S
VL: B1 VL
notes: phage clone supernatant
B18: 1F3-2E8 scFv (scFv, V domains shown)
VH: B8 VH with N28S, Y30S, S31D, I50W, D54S, G55K, Y57S, K58A, R59S
VL: B1 VL
notes: phage clone supernatant
B19: 1F3-1D12 scFv (scFv, V domains shown)
VH: B3 VH with D27Y, I28N, N31D, S33G, Y52S, P53G, N58K, R59Y
VL: B1 VL
notes: phage clone supernatant
B20: 1F3-1A9 scFv (scFv, V domains shown)
VH: B8 VH with N28S, Y30D, S31N, G33A, I50R, D54T, K58A, R59S
VL: B1 VL
notes: phage clone supernatant
B21: 1F3-2D2 scFv (scFv, V domains shown)
VH: B1 VH with S28N, G30S, G50R, K52S, S54Y, S56G, Y59H
VL: B1 VL
notes: phage clone supernatant
B22: 1F3-1F4 scFv (scFv, V domains shown)
VH: B3 VH with N31G, Y32S, P53A, D56S, N57D, N58K
VL: B1 VL
notes: phage clone supernatant
B23: 1F3-1G2 scFv (scFv, V domains shown)
VH: B8 VH with N28T, Y30G, S31D, I50R, S52D, D54W, G56A, Y57S, K58I
VL: B1 VL
notes: phage clone supernatant
B24: 1F3-1E4 scFv (scFv, V domains shown)
VH: B1 VH with S31T, G50R, K52S, P53G, S54D, T55S, S56A, T57N, T58I, Y59R
VL: B1 VL
notes: phage clone supernatant
B25: 1F3-2B1 scFv (scFv, V domains shown)
VH: B1 VH with F27Y, S28N, G30D, S31N, G33A, S54D, T55S, S56A
VL: B1 VL
notes: phage clone supernatant
B26: 1F3-2B2-2 scFv (scFv, V domains shown)
VH: B1 VH with F27Y, G30S, S31D, Y32F, G50R, K52D, T55G, S56W, T57S, Y59S
VL: B1 VL
notes: phage clone supernatant
B27: 1F3-2A11 scFv (scFv, V domains shown)
VH: B8 VH with Y27D, S31T, Y32F, G33Y, I50G, S52K, D54T, G56S, K58I, R59N
VL: B1 VL
notes: phage clone supernatant
B28: 1F3-2C6 scFv (scFv, V domains shown)
VH: B3 VH with P53A, D56S, N57D, N58K
VL: B1 VL
notes: phage clone supernatant
B29: 1F3-1D6 scFv (scFv, V domains shown)
VH: EVQLVESGGGLVQPGGSLRLSCAASGGSFYGFGMSWVRQAPGKGLEWVSGIYSHDADKRYADSVKGRFTISRDNSKNTLYLQMNSLRAEDTAVYYCARAELLAFDVYTASDYWGQGTLVTVSS
VL: B1 VL
notes: phage clone supernatant
B30: 1F3-1C4 scFv (scFv, V domains shown)
VH: B1 VH with S28T, S31D, S54W, T55G, T57G
VL: B1 VL
notes: phage clone supernatant

Residue numbers refer to the chain shown, from its start.

The experiment deals with T1, human Nectin-4 extracellular antigen hNectin-4-His (human, UniProt Q96NY8 32-349).
T1 construct: C-terminal 8xHis tag included
T1 sequence: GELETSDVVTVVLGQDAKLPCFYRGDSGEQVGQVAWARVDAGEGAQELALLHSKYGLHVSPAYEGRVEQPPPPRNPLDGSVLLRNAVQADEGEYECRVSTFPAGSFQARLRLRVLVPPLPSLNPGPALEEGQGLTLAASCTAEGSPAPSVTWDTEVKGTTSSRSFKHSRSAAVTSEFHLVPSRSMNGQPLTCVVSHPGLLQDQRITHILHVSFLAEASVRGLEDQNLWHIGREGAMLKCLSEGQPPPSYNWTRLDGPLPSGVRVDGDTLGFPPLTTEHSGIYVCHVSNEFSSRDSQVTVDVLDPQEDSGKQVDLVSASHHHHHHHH
In words: ELISA, phage scFv supernatant 1:50. How it is done:
The supernatants were diluted 50-fold, and the binding OD values of the diluted supernatants to hNectin-4-His were measured by ELISA. The samples were serially 3-fold diluted, and the EC₅₀ titer for the binding of the supernatants to the antigen was measured by ELISA. […] The light chain variable region sequence is set forth in SEQ ID NO: 25. The OD value is the measurement of ELISA, and the EC₅₀ value denotes the EC₅₀ value of the binding activity titer of the supernatant to the antigen.
Background: In an ELISA, binding on a coated surface is turned into a signal by an enzyme label.
Consider B1, for which the OD value is 1.56 OD.
In turn, B2 came in with an OD value of 1.54 OD.
The value for B3 was 1.29 OD; that for B4 was 1.64 OD.
Turning to B5, the OD value stood at 1.65 OD.
The figure for B6 is 1.65 OD; for B7 it is 1.55 OD.
The value for B8 was 1.57 OD; that for B9 was 1.65 OD; that for B10 was 1.59 OD.
The value for B11 was 1.65 OD; that for B12 was 1.56 OD.
Take B13: the OD value came to 1.67 OD.
The molecule B14 displayed an OD value of 1.57 OD.
The value for B15 was 1.56 OD.
The figure for B16 is 1.73 OD; for B17 it is 1.63 OD.
The value for B18 was 1.56 OD; that for B19 was 1.63 OD.
For B20, the OD value is 1.64 OD.
On to B21, for which the OD value stood at 1.59 OD.
The figure for B22 is 1.42 OD; for B23 it is 1.6 OD; for B24 it is 1.61 OD.
The figure for B25 is 1.62 OD; for B26 it is 1.59 OD; for B27 it is 1.52 OD.
For B28, the OD value was 1.38 OD.
With B29, the OD value amounted to 1.44 OD.
The figure for B30 is 1.59 OD.
